Results as given in paper PMC9631798, “Engineered human cytokine/antibody fusion proteins expand regulatory T cells and confer autoimmune disease protection” (Cell reports, 2022).
Positions count from the first letter of the chain named. Numbers in names are those of the source. One block for each binder: values may come before it.

Assays:
[1] = target: T1, Biotinylated human IL-2 (Homo sapiens, UniProt P60568, biotin on the biotin acceptor peptide (BirA ligase)); test: BLI; biotinylated hIL-2, hIL-2Rα or hIL-2Rβ immobilised on streptavidin biosensors; serial dilutions of analyte in PBSA (PBS pH 7.2, 0.1% BSA); 300 s association, 600 s dissociation; equilibrium titration, first-order fit; F5111 IC LN25 and LN35 as SEC peak P3, LN15 as majority peak; cytokine/antibody complexes pre-formed at 1:1 molar ratio, 60 minutes at 37°C; settings: both partners purified
T1 construct: human interleukin-2; limits not restated for this construct (hIL-2 is residues 1-133 in the other constructs); the hexahistidine tag follows the BAP; also called biotinylated hIL-2; hIL-2 (immobilised); source: HEK 293F (gWiz vector), purified (Ni-NTA, SEC), biotinylated with BirA
T1 sequence (P60568 21-153): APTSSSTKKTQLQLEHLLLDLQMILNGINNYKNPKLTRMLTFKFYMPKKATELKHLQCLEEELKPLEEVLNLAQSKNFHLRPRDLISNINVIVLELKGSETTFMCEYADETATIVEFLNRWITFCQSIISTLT

[2] = target: T2, yeast-displayed mIL-2 (residues 1-149) (Mus musculus, UniProt P04351); test: flow cytometry on cells; yeast surface display: hIL-2 or mIL-2 displayed on yeast (Aga2 fusion); serial dilutions of recombinant F5111 antibody, 2 hours at room temperature in PBE (PBS, 0.1% BSA, 1 mM EDTA); detected with anti-human IgG Fc APC; first-order binding model; settings: one partner purified
T2 construct: mouse interleukin-2, residues 1-149; a 3C protease site lies between Aga2 and the cytokine; also called mouse IL-2; not shown: Aga2 (yeast agglutinin protein), N-terminal, kept
T2 sequence (P04351 21-169): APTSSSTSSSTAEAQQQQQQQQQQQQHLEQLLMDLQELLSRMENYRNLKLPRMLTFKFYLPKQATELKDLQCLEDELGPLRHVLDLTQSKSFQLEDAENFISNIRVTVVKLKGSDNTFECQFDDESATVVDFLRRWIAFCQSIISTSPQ

[3] = target: T3, yeast-displayed hIL-2 (residues 1-133) (human, UniProt P60568); test: as above; settings: one partner purified
T3 construct: human interleukin-2, residues 1-133; a 3C protease site lies between Aga2 and the cytokine; not shown: Aga2 (yeast agglutinin protein), N-terminal, kept
T3 sequence (P60568 21-153): as the sequence (P60568 21-153) above

binding result [1]: binds | binding result [2]: no binding | binding result [3]: binds
B1: F5111 antibody (antibody, V domains shown)
VH: QLQLQESGPGLVKPSQTLSLTCTVSGGSISSGGYYWSWIRQHPGKGLEWIGYIYYSGSTYYNPSLKSRVTISVDTSKNQFSLKLSSVTAADTAVYYCARTPTVTGDWFDPWGRGTLVTVSS
VL: NFMLTQPHSVSESPGKTVTISCTRSSGSIASNYVQWYQQRPGSSPTTVIYEDNQRPSGVPDRFSGSIDSSSNSASLTISGLKTEDEADYYCQSYDSSNVVFGGGTKLTVL
notes: human IgG1 constant heavy chain; human lambda constant chain; human IgG1 lambda; anti-hIL-2; also called F5111 Ab; F5111 human immunoglobulin G1 (IgG1) antibody; source: HEK 293F, transient co-transfection of HC and LC plasmids, purified (protein G, SEC); copies: 2 + 2

binding result [1]: binds
B2: F5111.2 Antibody (N297A) (antibody, V domains shown)
VH: B1 VH with Y55K, T59A, N62S
VL: B1 VL with S93T, S97I, N98D, V100Y
notes: as the VH of m21 (F5111.2; human IgG1 constant heavy chain with N297A in the Fc region; 297 is EU numbering); as the VL of m21 (F5111.2); human lambda constant chain; in all studies the F5111.2 antibody includes N297A; the isotype platform is stated for F5111 only; source: HEK 293F, transient co-transfection, purified (protein G, SEC); copies: 2 + 2
